In the experiment the target is S-RBD-Rhizavidin fusion protein (SARS-CoV-2 | not stated) (UniProt P0DTC2). The experiment in a line: SEC-MALS; HPLC-SEC on AdvanceBio SEC 1.9 μm column, 0.4 mL/min, 20 mM HEPES, 100 mM sodium chloride, 25 °C; about 20 micrograms injected; MALS with first order Zimm fit.

In the case of “S-RBD-Rhizavidin fusion protein (from UniProt P0DTC2 331-524)”, the stoichiometry N (in general, a count of units in the complex or per binding partner) came to 2.

Values taken from paper PMC9317729.
